In patent EP4435012A1 (Juventus Cell Therapy Ltd., dated 2024):

T1: BCMA on MM.1S cells (human multiple myeloma cells that endogenously express BCMA) (human, UniProt Q02223 1-184)
T1 sequence (looked up): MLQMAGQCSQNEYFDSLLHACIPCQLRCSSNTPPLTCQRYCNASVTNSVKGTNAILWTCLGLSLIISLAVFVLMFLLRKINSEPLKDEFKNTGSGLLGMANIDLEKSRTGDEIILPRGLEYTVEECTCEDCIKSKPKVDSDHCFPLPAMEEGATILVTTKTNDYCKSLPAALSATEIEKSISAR


Target: T1, BCMA on MM.1S cells (human multiple …)
Assay: cell-based or functional assay

Binder | killing of target cell (luciferase activity in target cell, effector/target 1:4, 48 hours) [%]
BY-01G CAR (on BCMA CAR-T cell BY-01G) (other) EIVMTQSPSTLSASVGDRVIITCQASENIYRNLAWYQQKPGKAPKLLIYAASLLASGVPSRFSGSGSGAEFTLTISSLQPDDFATYYCQNAFYSSSADNPFGQGTKLTVLGGGGSGGGGSGGGGSEVQLVESGGGLVQPGGSLRLSCTASGFSLSSYAMSWVRQAPGKGLEWIGMISSSGSTHYASWAKGRFTISRDTSKNTVYLQMNSLRAEDTAVYYCARDFYVYSSGTYLEYGMDLWGQGTLVTVSSTTTPAPRPPTPAPTIASQPLSLRPEACRPAAGGAVHTRGLDFACDIYIWAPLAGTCGVLLLSLVITLYCKRGRKKLLYIFKQPFMRPVQTTQEEDGCSCRFPEEEEGGCELRVKFSRSADAPAYQQGQNQLYNELNLGRREEYDVLDKRRGRDPEMGGKPRRKNPQEGLYNELQKDKMAEAYSEIGMKGERRRGKGHDGLYQGLSTATKDTYDALHMQALPPR | 100
BY-04G CAR (on BCMA CAR-T cell BY-04G) (other) EIVMTQSPSTLSASVGDRVIINCQASQSVFSNNYLAWYQQKPGKAPKLLIYRASNLASGVPSRFSGSGSGAEFTLTISSLQPDDFATYYCQPTYLSGDWYVAFGQGTKLTVLGGGGSGGGGSGGGGSEVQLVESGGGLVQPGGSLRLSCTASGFSLNYYGMGWVRQAPGKGLEWIGIIAGDRDTYYATWAKGRFTISRDNSKNTVYLQMNSLRAEDTAVYFCARGSYSSTWDGAFDLWGPGTLVTVSSTTTPAPRPPTPAPTIASQPLSLRPEACRPAAGGAVHTRGLDFACDIYIWAPLAGTCGVLLLSLVITLYCKRGRKKLLYIFKQPFMRPVQTTQEEDGCSCRFPEEEEGGCELRVKFSRSADAPAYQQGQNQLYNELNLGRREEYDVLDKRRGRDPEMGGKPRRKNPQEGLYNELQKDKMAEAYSEIGMKGERRRGKGHDGLYQGLSTATKDTYDALHMQALPPR | 100
